Reference: US9879094B2, “Nucleic acid molecules encoding for BACE1 antibodies” (Genentech, Inc., priority 2010, dated 2018)
Where “and” joins values, the source holds several entries; their conditions need not be identical. Identical values can stand only once.

Columns and labels:
[1] = system: Aβ1-40 in Cynomolgus monkeys; experiment: Cynomolgus monkeys, single IV dose, Aβ1-40 in plasma and CSF; assay type: in vivo, Cynomolgus monkey; conditions: 30 mg/kg IV
Description: Cynomolgus monkeys were dosed with control IgG or YW412.8.31 anti-BACE1 antibody (30 mg/kg) by IV delivery. Plasma and CSF were sampled up to 7 days prior to dosing to set mean baseline Aβ1-40 levels in each in individual animal, and then at various times after dosing. Total anti-BACE1 or control antibody concentrations in monkey serum and CSF samples were measured using monkey-adsorbed goat anti-human IgG polyclonal antibody (Bethyl, Montgomery, Tex.) as both coat and detection (FIG. 20). Free anti-BACE1 antibody concentrations in monkeys were determined using BACE1 ECD as coat and the monkey-adsorbed goat anti-human IgG antibody (Bethyl) for detection.
Aβ1-40 levels in plasma and CSF from Cynomolgus monkeys tested was also determined. Briefly, the concentrations of total cyno Aβ1-40 in plasma were determined using MSD MA6000 Human (6E10) Abeta Kit (Cat#K111BVE-2, Meso Scale Diagnostics) according to the Manufacturer's instructions. The capture antibody, specific for the C terminus of Aβ1-40, was pre-coated on the plates, and Sulfo-Tag anti-Aβ monoclonal antibody 6E10 was used for detection. The assay had lower limit of quantification values of 49.4 pg/ml in plasma. The concentrations of total cyno Aβ1-40 in CSF were determined using a sandwich ELISA. […]

Cathepsin D = molecular target: T1, Cathepsin D (Homo sapiens, UniProt P07339); experiment: MCE assay, cathepsin D; assay type: biochemical
T1 construct: the extracellular domain of Cathepsin D (6 nM, Calbiochem®); purchased Calbiochem
Description: The MCE assay reactions were carried out in a final volume of 20 μL per well in a 384-well microplate. A standard enzymatic reaction, initiated by the addition of 10 μL 2× substrate to 5 μL of 4× enzyme and […] of 4× compound, containing 12 nM human BACE1 extracellular domain, […] amyloid precursor protein beta secretase active site peptide (FAM-[…]-CONH2 (SEQ ID NO:55)), 50 mM NaOAc pH 4.4 and 0.1% CHAPS. The same reaction conditions were used for the extracellular domain of human BACE2 enzyme (5 nM) and the extracellular domain of Cathepsin D (6 nM, Calbiochem®). After incubation for 60 minutes at ambient temperature, the product and substrate in each reaction were separated using a 12-sipper microfluidic chip analyzed on an LC3000® (both, Caliper Life Sciences). The separation of product and substrate was optimized by choosing voltages and pressure using the manufacturer's optimization software. The separate buffer contained 100 mM HEPES pH 7.2, 0.015% Brij-35, 0.1% coating reagent #3, 10 mM EDTA and 5% DMSO. The separation conditions used a downstream voltage of −500V, an upstream voltage of −2250V and a screening pressure of −1.2 psi. The product and substrate fluorescence was excited at a wavelength of 488 nm and detected at a wavelength of 530 nm. Substrate conversion was calculated from the electropherogram using HTS Well Analyzer software (Caliper Life Sciences).

human BACE1 ECD = molecular target: T2, human BACE1 ECD (Homo sapiens, UniProt P56817); experiment: BIAcore SPR binding kinetics, human BACE1
T2 construct: human BACE1 ECD or murine BACE1 ECD (amino acids 1-457) was injected in PBT buffer
Description: The binding kinetics of YW412.8.31 was assessed. Briefly, binding affinities of anti-BACE1 IgGs were measured by surface plasmon resonance (SPR) using a BIAcore™-3000 instrument. YW412.8.31 anti-BACE1 human IgG was captured by mouse anti-human Fc antibody (GE Healthcare, cat# BR-1008-39) coated on CM5 biosensor chips to achieve approximately 100 response units (RU). For kinetics measurements, two-fold serial dilutions (0.98 nM to 125 nM) of human BACE1 ECD or murine BACE1 ECD (amino acids 1-457) was injected in PBT buffer (PBS with 0.05% Tween 20) at 25° C. with a flow rate of 30 μl/min. Association rates (kon) and dissociation rates (koff) were calculated using a simple one-to-one Langmuir binding model (BIAcore™ Evaluation Software version 3.2). The equilibrium dissociation constant (KD) was calculated as the ratio koff/kon.

Aβ1-40 in wild-type mice = experiment: Wild-type mice, single IV dose, Aβ1-40 levels; assay type: in vivo, mouse; conditions: 50 mg/kg single IV
Description: The ability of anti-BACE1 antibodies YW412.8.31 to modulate amyloidogenic processing was also assessed in wild-type mice. Briefly, experiments were performed as described above. A single dose of control IgG antibody or YW412.8.31 anti-BACE1 antibody (50 mg/kg) was delivered systemically by intravenous (IV) injection to wild-type mice. After 24 or 48 hours, plasma and brain samples were harvested and Aβ1-40 levels were analyzed. The concentrations of total mouse Aβ1-40 in plasma and brain were determined using a sandwich ELISA following similar procedures described below for measuring total anti-BACE1 antibody concentrations. Briefly, rabbit polyclonal antibody specific for the C terminus of Aβ1-40 (Millipore, Bedford, Mass.) was coated onto plates, and biotinylated anti-mouse Aβ monoclonal antibody M3.2 (Covance, Dedham, Mass.) was used for detection. The assay had lower limit of quantification values of 1.96 pg/ml in plasma and 39.1 pg/g in brain. As is shown in FIG. 16, panel B, Plasma Aβ1-40 was reduced by 35% and cortical Aβ1-40 was reduced by 20%.

T2 sequence (P56817 22-457): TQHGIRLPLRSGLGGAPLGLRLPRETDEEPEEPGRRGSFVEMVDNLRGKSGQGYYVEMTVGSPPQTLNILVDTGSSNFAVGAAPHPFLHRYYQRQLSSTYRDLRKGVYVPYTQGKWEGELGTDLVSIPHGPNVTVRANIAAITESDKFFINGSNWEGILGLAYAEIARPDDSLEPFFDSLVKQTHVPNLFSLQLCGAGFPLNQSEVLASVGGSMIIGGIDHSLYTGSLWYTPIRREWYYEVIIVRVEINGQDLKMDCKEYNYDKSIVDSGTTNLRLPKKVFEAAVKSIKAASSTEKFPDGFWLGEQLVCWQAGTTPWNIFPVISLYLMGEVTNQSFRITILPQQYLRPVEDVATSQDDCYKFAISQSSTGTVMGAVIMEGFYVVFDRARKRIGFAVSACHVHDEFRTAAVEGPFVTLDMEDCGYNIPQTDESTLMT
T1 sequence (P07339 65-412, species assumed): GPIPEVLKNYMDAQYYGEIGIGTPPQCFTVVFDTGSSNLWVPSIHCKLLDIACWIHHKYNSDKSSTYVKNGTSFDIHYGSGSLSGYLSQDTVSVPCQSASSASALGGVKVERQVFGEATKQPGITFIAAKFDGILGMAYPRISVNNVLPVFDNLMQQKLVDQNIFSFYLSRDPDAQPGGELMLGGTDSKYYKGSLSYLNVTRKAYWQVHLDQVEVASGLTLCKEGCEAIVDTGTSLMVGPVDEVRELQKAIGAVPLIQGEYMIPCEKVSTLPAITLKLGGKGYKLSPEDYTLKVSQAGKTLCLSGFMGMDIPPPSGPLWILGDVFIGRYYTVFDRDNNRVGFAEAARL

B1: YW412.8.31: affinity matured form of YW412.8 anti-BACE1 antibody (antibody, V domains shown)
VH: EVQLVESGGGLVQPGGSLRLSCAASGFTFLGYGIHWVRQAPGKGLEWVGWISPAGGSTDYADSVKGRFTISADTSKNTAYLQMNSLRAEDTAVYYCARGPFSPWVMDYWGQGTLVTVSS
VL: DIQMTQSPSSLSASVGDRVTITCRASQDVSTAVAWYQQKPGKAPKLLIYSASFLYSGVPSRFSGSGSGTDFTLTISSLQPEDFATYYCQQFPTYLPTFGQGTKVEIK
reduction of CSF Aβ1-40 ([1]; 1 and 3 days following dosing): up to 50%
reduction of plasma Aβ1-40 from baseline ([1]; sustained over 7 days): ~50%
inhibition of cathepsin D (Cathepsin D): did not inhibit
Binding to BACE1 (human BACE1 ECD; at both pH 7.0 and 5.0): confirmed
KON (human BACE1 ECD; human BACE1, IgG captured, pH 7.0, 25° C.): 1.1 × 10^5 M^−1S^−1 and 1.05 × 10^5 M^−1S^−1
reduction of cortical Aβ1-40 (Aβ1-40 in wild-type mice; 24 or 48 hours): 20%
reduction of plasma Aβ1-40 (Aβ1-40 in wild-type mice; at 24 hr): 35%
